Consider six molecules from patent CN108635579A (UNIV JINAN, dated 2018).

Usually Kd stands for a measure of binding affinity in units of concentration. Higher therefore signals weaker binding.

Substitutions are numbered along the chain they refer to.

Test [1] has as its target T1, 重组人碱性成纤维细胞生长因子(bFGF) (human, UniProt P09038 143-288, limits assumed).
T1 construct: Bought protein; also called 重组人bFGF; bFGF抗原
The test can be described thus: cell-based or functional assay.

The target in test [2] is T1, 重组人碱性成纤维细胞生长因子(bFGF). The test can be described thus: SPR, bFGF immobilised on the chip, nanobody 3.125-200 nM in flow. Background: In SPR one partner is held on a chip, and binding of the other changes the refractive index at the surface.

T1 sequence (P09038 143-288 limits assumed): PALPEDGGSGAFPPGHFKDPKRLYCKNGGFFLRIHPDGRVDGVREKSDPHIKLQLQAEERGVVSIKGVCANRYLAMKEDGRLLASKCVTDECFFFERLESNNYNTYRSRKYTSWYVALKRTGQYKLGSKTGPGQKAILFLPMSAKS

With 阳性对照FGFR (receptor), in the test with 重组人碱性成纤维细胞生长因子(bFGF) [1], the 最高增值抑制率, A375细胞 (CCK-8) is 25.3%; the 最高增值抑制率, B16-F10细胞 (CCK-8) was determined as 22.1%; the 最高增值抑制率, B16细胞 (CCK-8) came out at 27.1%.

B1: 抗bFGF纳米抗体 Nb5 (VHH)
VHH: LQESGGGLVQAGGSLRLSCAASGRTFSSGAMGWFRQAPGKEPEFVATITWDGGTTYYADSVKGRYTISRDNAKNTVYLQMNDLKPEDTAVYSCAARSYSEAYYLIGSSDYNYWGQGTQVTVSS
notes: Alpaca nanobody; Nickel-purified, anti-Flag detected; also called Nb bFGF
Consider B1, for which, in the test with 重组人碱性成纤维细胞生长因子(bFGF) [2], the dissociation constant (Kd) is 12.4 nM.

B2: 抗bFGF纳米抗体 Nb6 (VHH)
VHH: LQESGGDLVQPGGSLRLSCEVSGSNFSINDMGWYRQAPGKRREVVAGISSVGRTMYGDPVKGRFTISRDNAKNMVYLQMNRLKPEDTAVYYCHLYGDYRGTGFWGKGTQVTVSS
notes: as for B1
As to B2, the dissociation constant (Kd) with 重组人碱性成纤维细胞生长因子(bFGF) [2] stood at 10.3 nM.

B3: 抗bFGF纳米抗体 Nb1 (VHH)
VHH: B2 VHH with I28N, R41Q, P84A, E85K
notes: Expressed from pET22b in E. coli, purified on a nickel column and detected with an anti-Flag antibody; also called Nb bFGF
Molecule B3 displayed an equilibrium dissociation constant (Kd) with 重组人碱性成纤维细胞生长因子(bFGF) [2] of 11.3 nM.

B4: 抗bFGF纳米抗体 Nb2 (VHH)
VHH: B2 VHH with T54A, G57A, H93Y
notes: as for B1
Molecule B4 returned a dissociation constant (Kd) with 重组人碱性成纤维细胞生长因子(bFGF) [2] of 318 nM.

B5: 抗bFGF纳米抗体 Nb3 (VHH)
VHH: B2 VHH with G57A
notes: as for B1
In the test with 重组人碱性成纤维细胞生长因子(bFGF) [2], B5 gave a Kd of 5.37 nM. Against the preceding molecule, the Kd is about 59-fold lower.
